Here are results for 3 molecules from US20050143285A1.

Several values for one entry are separate records, joined by “and”; a condition that tells them apart may be missing. Identical values can stand only once. Like-named read-outs stand apart in the source and are kept apart here.

Test [1] has as its target T1, Lymnaea stagnalis acetylcholine binding protein (AChBP) (Lymnaea stagnalis), P58154.
In test [2] the target is T1, Lymnaea stagnalis acetylcholine binding …. This is another data set of the same source.
For test [3] the target is unchanged. The source holds these as a separate data set.
Test [4] deals with T2, Aplysia californica acetylcholine binding protein (AChBP) (Aplysia californica).
T2 chain: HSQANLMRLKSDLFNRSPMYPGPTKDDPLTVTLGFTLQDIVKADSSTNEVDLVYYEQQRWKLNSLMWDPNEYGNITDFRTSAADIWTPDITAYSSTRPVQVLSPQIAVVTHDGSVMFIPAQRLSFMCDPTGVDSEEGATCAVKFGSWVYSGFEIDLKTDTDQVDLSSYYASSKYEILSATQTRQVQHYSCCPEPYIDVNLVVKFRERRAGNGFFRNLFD

Test [5] addresses T1, Lymnaea stagnalis acetylcholine binding …. Put plainly: ratio of Kd on Lymnaea AChBP to Kd on Aplysia AChBP.
Test [6] has the same target. Put plainly: stopped-flow fluorescence; Kd calculated from k-1/k1.
Test [7] has the same target. Briefly: stopped-flow spectrofluorimetry, excitation 280 nm, emission above 305 nm.
For test [8] the target is unchanged. Briefly: stopped-flow, intrinsic tryptophan fluorescence quenching of Lymnaea AChBP.
For test [9] the target is unchanged. Put plainly: equilibrium titration, intrinsic tryptophan fluorescence of Lymnaea AChBP.

T1 sequence (P58154 20-229): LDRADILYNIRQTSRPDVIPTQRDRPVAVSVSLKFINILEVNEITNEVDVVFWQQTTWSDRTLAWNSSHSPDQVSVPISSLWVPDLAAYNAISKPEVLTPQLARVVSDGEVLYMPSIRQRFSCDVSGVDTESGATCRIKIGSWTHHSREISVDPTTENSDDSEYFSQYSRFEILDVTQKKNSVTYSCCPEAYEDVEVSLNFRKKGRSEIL

B1: α-bungarotoxin, P60615 22-95 (peptide)
chain: IVCHTTATSPISAVTCPPGENLCYRKMWCDAFCSSRGKVVELGCAATCPSKKPYEEVTCCSTDKCNPHPKQRPG
modifications: not checked
As usually defined, the Kd is a measure of binding affinity in units of concentration. In general, koff refers to the first-order rate constant of dissociation. For orientation: kon means a measure of how fast the partners come together. Higher therefore signals faster complex formation. In the case of B1, the Kd in [1] and in test [6] was 1.8 nM in each case. Besides, the values for the koff in test [2] and in test [8] were 0.001 s⁻¹ and 0.0017 s⁻¹, respectively. In addition, the fold slower rate of association than epibatidine in [3] stood at 200 fold. Also, the k2 (unimolecular step of association) in test [3] worked out at 0.34 s⁻¹. The fold lower affinity than for L-AChBP in test [4] was determined as 100 fold. The Kd Ratio L/A in test [5] was 0.0071. Moreover, the kon is 900000 M⁻¹ s⁻¹ in [7] and 970000 M⁻¹ s⁻¹ in test [8]. For the same molecule, the percent quenching of the unliganded receptor fluorescence in test [9] was 15% and 20%.

B2: α-Cobratoxin, P01391 1-71 (peptide)
chain: IRCFITPDITSKDCPNGHVCYTKTWCDAFCSIRGKRVDLGCAATCPTVKTGVDIQCCSTDNCNPFPTRKRP
modifications: not checked
As to B2, in [6], the Kd is 3.2 nM. In test [8], this molecule displayed a koff of 0.011 s⁻¹ and a kon of 3.3e+06 M⁻¹ s⁻¹.

With GGKPDLRPCHPPCHYIPRPKPR (modifications not checked) [Waglerin-1, P24335 3-24], in test [6], the Kd is 6500 nM. For the same molecule, in [8], the koff is 31 s⁻¹ and the kon came out at 4.8e+06 M⁻¹ s⁻¹.
